Assay results reported in PMC5673899, “Structural basis for receptor recognition of pollen tube attraction peptides” (Nature Communications, 2017).
Entries after “also recorded” stand apart in the source; their conditions may differ.

What was measured:
[1] = tested on: AtPRK6^LRR with mutations of other AtLURE1.2-interacting residues; assay: In vitro pull-down with other AtPRK6^LRR mutants; type: binding, Arabidopsis thaliana; conditions: mutations of other AtLURE1.2-interacting residues of AtPRK6^LRR
Source text: (§1) The genes of AtPRK3 ^LRR (residues 1–241), AtPRK4 ^LRR (residues 1–277), AtPRK5 ^LRR (residues 1–279), AtPRK6 ^LRR (residues 1–262), MIK1 ^LRR (residues 1–633), MIK2 ^LRR (residues 1–707) were amplified from Arabidopsis cDNA library by PCR and cloned into pFastBac-1 vector with a C-terminal 6 × His-tag. Their identities were confirmed by sequencing. The mature form of AtLURE1.1 (residues 20–94), AtLURE1.2 (residues 20–90), AtLURE1.3 (residues 21–91), and AtLURE1.4 (residues 20–90) were cloned into pFastBac-1 vector, with a modified N-terminal hemolin signal peptide and 6 × His-SUMO tag. Point mutation constructs were generated by QuickChange Site-Directed Mutagenesis Kit (Strategene). All the proteins were expressed using the Bac-to-Bac baculovirus expression system (Invitrogen) in High Five cells at 22 °C. One liter of High Five cells (2.0 × 10^6 cells mL^−1) cultured in the medium from Expression Systems was infected with 25 ml recombinant baculovirus and the media was collected after 72 h of infection. Secreted LRR proteins were purified using Ni-NTA (Novagen) and size-exclusion chromatography (Hiload 200, GE Healthcare) in buffer containing 10 mM Bis-Tris pH 6.0 and 100 mM NaCl. […]
The purified His-tagged ectodomains of AtPRK proteins and MIK1, 2 were used to pull-down the AtLURE1.2 peptide. […] All the eluted samples were analyzed by SDS-PAGE and visualized by Coomassie blue staining. […]

[2] = tested on: semi-in-vivo pollen tubes; assay: Gelatin-beads assay, wild-type semi-in-vivo pollen tubes; type: cell-based, Arabidopsis; conditions: gelatin beads containing 250 nM peptide
Procedure: (§2) Attraction activities of mutant AtLURE1.2 peptides were examined for semi-in-vivo pollen tubes growing through cut, pollinated pistils by gelatin-beads assay and wavy assay, [20]. For the gelatin-beads assay, pollen tubes were grown on solid pollen germination medium poured into a mold made with 1-mm thick silicone rubber and cover glasses. After hand-pollination, the topside cover glass was removed and the medium was covered with hydrated silicone oil (KF-96–100CS; Shin-Etsu). Attraction of pollen tubes toward the peptide was evaluated using AtLURE1 peptide containing gelatine beads under an inverted microscope (IX71, Olympus) equipped with a micro-manipulator (Narishige). For the AtLURE1-responsive wavy assay, the purified AtLURE1.2 peptide was added to solid pollen germination medium, which was melted at 70 °C and then cooled to a certain degree. The mixture was mixed by vortexing and poured into the mold. Pollen tubes of each genotype were grown through cut styles, as mentioned above. Each peptide (25 μM in 10 mM Bis-Tris (pH 6.0) and 100 mM NaCl) was diluted to 250 nM by cultivation medium in both assays. To examine reactivity of PRK6 mutants to AtLURE1.2, constructs for PRK6 mutants, D234A, N239A, and ΔN239I240, were generated by site-directed mutagenesis from a wild-type PRK6 vector, pPZP221-pPRK6::PRK6-mRuby2 (ref. [20]). Wild-type and mutant PRK6 constructs were introduced into prk6–1 plant. After transformants were selected by the same criteria as previously, beads assay and wavy assay were performed in several T1 lines and single T2 line, respectively, for each genotype using 250 nM wild-type AtLURE1.2 peptide.

AtPRK3^LRR = assay: ITC, AtLURE1.2 titrated into AtPRK3^LRR; type: binding, Arabidopsis; conditions: 25 °C, 200 mM HEPES pH 7.0, 100 mM NaCl, ~0.9 mM AtLURE1.2 into 0.08 mM AtPRK3^LRR
Source text: as §1, with “NaCl. The His-SUMO tag of the AtLURE proteins was removed by Prescission Protease at 4 °C overnight in buffer containing 25 mM Tris pH 8.0 and 150 mM NaCl.” for “NaCl.”

[3] = tested on: prk6 pollen tubes transformed with PRK6 D234A; assay: Gelatin-beads assay, prk6 pollen tubes transformed with D234A PRK6; type: cell-based, Arabidopsis; conditions: beads with 250 nM wild-type AtLURE1.2; 10–23 pollen tubes per assay, three assays
Procedure: as §2, with “Wild-type and mutant PRK6 constructs were introduced into prk6–1 plant. After transformants were selected by the same criteria as previously, beads assay and wavy assay were performed in several T1 lines and single T2 line, respectively, for each genotype using 250 nM wild-type AtLURE1.2 peptide.” left out

B1: AtLURE1.2: mature form of AtLURE1.2 (residues 20–90), defensin-like cysteine-rich peptide expressed in insect cells (protein)
chain: TLINGSSDEERTYSFSPTTSPFDPRSLNQELKIGRIGYCFDCARACMRRGKYIRTCSFERKLCRCSISDIK
modifications: left off: His6, N-terminal, cleaved | SUMO, N-terminal, cleaved
notes: mature form of AtLURE1.2 (residues 20–90), defensin-like cysteine-rich peptide expressed in insect cells
- interaction in pull-down assay [1]: much less striking effects
- pollen tube attraction activity (in words) ([2]; Tukey−Kramer test, P < 0.05): efficiently attracted pollen tubes
- attraction frequency of pollen tubes ([2]; mean ± SD, 9–16 pollen tubes per assay, 3−5 assays): 94 ± 7%
- binding in ITC (AtPRK3^LRR): none of the purified AtPRK3^LRR, MIK1^LRR or MIK2^LRR proteins showed detectable interaction
- pollen tube attraction [3]: significantly lower than those in wild-type and N239A PRK6 pollen tubes; also recorded: significantly reduced
